According to PMC6220978, “Induced conformational changes activate the peptidoglycan synthase PBP1B” (Molecular Microbiology, 2018):

T1: PBP1B (wild type, PBP1B^46-844) (E. coli, UniProt P02919 46-844)
T1 construct: PBP1B, E. coli, residues 46-844, encoded on pDML924; Immobilised on the SPR chip as in Egan et al. 2014 / Gray et al. 2015; also called WT PBP1B; WT; source: E. coli BL21(DE3), purified (membrane extract, HisTrap, thrombin, HiTrap SP ion exchange)
T1 sequence (looked up): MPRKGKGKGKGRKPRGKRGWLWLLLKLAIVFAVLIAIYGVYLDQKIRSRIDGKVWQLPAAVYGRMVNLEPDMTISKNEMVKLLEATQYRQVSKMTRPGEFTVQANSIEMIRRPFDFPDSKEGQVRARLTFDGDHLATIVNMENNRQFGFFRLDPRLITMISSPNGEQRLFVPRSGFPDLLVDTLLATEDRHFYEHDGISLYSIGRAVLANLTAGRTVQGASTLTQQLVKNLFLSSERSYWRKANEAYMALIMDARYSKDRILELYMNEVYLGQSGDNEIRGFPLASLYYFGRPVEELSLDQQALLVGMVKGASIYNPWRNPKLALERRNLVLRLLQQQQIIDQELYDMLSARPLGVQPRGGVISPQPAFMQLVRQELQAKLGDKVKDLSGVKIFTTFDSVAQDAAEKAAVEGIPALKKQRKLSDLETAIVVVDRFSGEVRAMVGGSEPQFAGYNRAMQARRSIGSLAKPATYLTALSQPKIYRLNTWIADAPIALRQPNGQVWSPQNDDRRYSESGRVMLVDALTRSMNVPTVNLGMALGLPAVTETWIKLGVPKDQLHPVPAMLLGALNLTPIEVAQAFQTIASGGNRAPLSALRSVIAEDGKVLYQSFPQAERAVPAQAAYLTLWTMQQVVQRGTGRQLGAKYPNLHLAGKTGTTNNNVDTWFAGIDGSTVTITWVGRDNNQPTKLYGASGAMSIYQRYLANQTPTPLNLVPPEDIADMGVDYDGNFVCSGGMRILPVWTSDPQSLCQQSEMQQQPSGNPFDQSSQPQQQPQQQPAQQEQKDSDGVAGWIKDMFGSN

B1: CpoB^TPR+link (CpoB^110-263) (domain or fragment, E. coli, UniProt P45955 110-263, looked up)
chain: STSGDQSGAAASTTPTADAGTANAGAPVKSGNANTDYNAAIALVQDKSRQDDAMVAFQNFIKNYPDSTYLPNANYWLGQLNYNKGKKDDAAYYFASVVKNYPKSPKAADAMFKVGVIMQDKGDTAKAKAVYQQVISKYPGTDGAKQAQKRLNAM
notes: CpoB, E. coli, residues 110-263 (inter-domain linker and TPR domain), in pET28a with a thrombin cleavage site; also called CpoB^TPR version with this linker (res. 110–263); source: E. coli BL21(DE3), purified (HisTrap, Superdex 200)
B2: UB2H domain of PBP1B (PBP1B^108–200) (domain or fragment, E. coli, UniProt P02919 108-200, looked up)
chain: GRMVNLEPDMTISKNEMVKLLEATQYRQVSKMTRPGEFTVQANSIEMIRRPFDFPDSKEGQVRARLTFDGDHLATIVNMENNRQFGFFRLDPR
notes: PBP1B, E. coli, residues 108 to 200 (UB2H domain), in pET28a with a thrombin cleavage site; [13C,15N]- or 15N-labelled for NMR; in the reciprocal PRE experiment spin labelled at random on lysines with OXYL-1-NHS; source: E. coli BL21(DE3), isotopically labelled in M9 medium, purified (HisTrap, Superdex 200)
B3: CpoB^TPR (CpoB^139-263), C-terminal TetratricoPeptide Repeat domain of CpoB (domain or fragment, E. coli, UniProt P45955 139-263, looked up)
chain: SGNANTDYNAAIALVQDKSRQDDAMVAFQNFIKNYPDSTYLPNANYWLGQLNYNKGKKDDAAYYFASVVKNYPKSPKAADAMFKVGVIMQDKGDTAKAKAVYQQVISKYPGTDGAKQAQKRLNAM
notes: CpoB, E. coli, residues 139-263 (TPR domain), in pET28a with a thrombin cleavage site; In the PRE NMR one of the partners was 15N-labelled, the other spin labelled at random on lysines with OXYL-1-NHS; also called C-terminal TPR domain; source: E. coli BL21(DE3), purified (HisTrap, Superdex 200)

What was measured:
Settings in all cases: both partners purified
[1] = biological target: T1, PBP1B (wild type, PBP1B^46-844); test: SPR; PBP1B versions immobilised to the chip surface; CpoB versions injected from either 3.9 nM to 2 μM or from 78 nM to 40 μM; apparent KD by non-linear regression, at least three independent experiments
[2] = biological target: B3; test: paramagnetic relaxation enhancement (PRE) NMR; 100 µM 15N-labelled protein with the partner spin labelled at random on lysines, molar ratio 1:2, 2D HN-HSQC at 850 MHz, 20°C; intensity ratio before and after reduction with sodium ascorbate; done in both directions (15N-CpoB with spin labelled UB2H, 15N-UB2H with spin labelled CpoB)
[3] = biological target: T1, PBP1B (wild type, PBP1B^46-844); test: SPR; PBP1B versions immobilised to the chip surface; CpoB versions injected from either 3.9 nM to 2 μM or from 78 nM to 40 μM; apparent KD by non-linear regression, at least three independent experiments; remark: listed apart in the source

Binder: B1
binding result [1]: binds

Binder: B2
binding result [2]: binds

Binder: B3
Kd [3]: 4.9 µM
